Data as given in patent US20180155451A1 (published 2018).
Where a chain is given by its changes, count along the chain named. Names may count otherwise. Where two headings read alike, the source gives them in different places.

Assays:
FcgRIIIa F [1] = target: T1, FcgRIIIa F (human, UniProt P08637 17-208); assay: SPR (Biacore), antibody captured on chip, FcgR extracellular domain as analyte
T1 construct: extracellular domain; also called FcγRIIIa F; not shown: His tag attached to the C terminus
Procedure: (§1) Similarly, H240-AK072 and L73-k0, and H240-BH076 and L73-k0 were each combined to express and prepare the homodimerized antibodies H240-AK072/L73-k0 and H240-BH076/L73-k0. The antibodies were compared for the binding to each FcgR according to the method described in Reference Example 8.
(§2) Analysis of interaction between obj ective antibody and the FcγR was carried out using Biacore T100 (GE Healthcare), Biacore T200, Biacore A100, and Biacore 4000. HBS-EP+ (GE Healthcare) was used as the running buffer, and the measurement temperature was set to 25° C. Chips produced by immobilizing the antigen peptide by the amine coupling method to a Series S sensor Chip CM5 (GE Healthcare), chips produced by allowing preliminarily biotinylated antigen peptides to interact with and immobilize onto a Series S Sensor Chip SA (certified) (GE Healthcare), chips produced by immobilizing Protein L (ACTIGEN, BioVision) to Series S Sencor Chip CM5 (GE Healthcare), or chips produced by immobilizing Protein A/G (Thermo Scientific) to Series S Sencor Chip CM5 (GE Healthcare) were used. Antibodies of interest were captured onto these chips, and allowed to interact to each FcγR diluted with running buffer. To regenerate and repeatedly use the chip, the antibodies captured onto the chip were washed off by reacting 10 mM glycine-HCl, pH 1.5.

FcgRIIIa V [2] = target: T2, FcgRIIIa V (human, UniProt P08637 17-208); assay: as above
T2 construct: extracellular domain; also called FcγRIIIa V; not shown: His tag attached to the C terminus
Procedure: as §1, §2

FcgRIa = target: T3, FcgRIa (human, UniProt P12314 16-292); assay: as above
T3 construct: extracellular domain; Expressed in FreeStyle293 cells and purified; used as analyte in Biacore; also called FcγRIa; FcγRI; not shown: His tag attached to the C terminus
Procedure: as §2

FcgRIIa R = target: T4, FcgRIIa R (human, UniProt P12318 34-217); assay: as above
T4 construct: extracellular domain; also called FcγRIIa R; FcγRIIa type R; not shown: His tag attached to the C terminus
T4 sequence (looked up): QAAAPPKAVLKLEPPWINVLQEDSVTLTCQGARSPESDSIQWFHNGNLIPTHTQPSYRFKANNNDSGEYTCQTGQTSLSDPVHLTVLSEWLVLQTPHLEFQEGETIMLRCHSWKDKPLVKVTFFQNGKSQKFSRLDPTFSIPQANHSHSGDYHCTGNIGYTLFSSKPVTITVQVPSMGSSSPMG
Procedure: as §2

FcgRIIa H = target: T5, FcgRIIa H (human, UniProt P12318 34-217); assay: as above
T5 construct: extracellular domain; also called FcγRIIa H; FcγRIIa type H; not shown: His tag attached to the C terminus
T5 sequence (looked up): T4 sequence (looked up) with R134H
Procedure: as §2

FcgRIIb = target: T6, FcgRIIb (human, UniProt P31994 43-217); assay: as above
T6 construct: extracellular domain; Expressed in FreeStyle293 cells and purified; used as analyte in Biacore; also called FcγRIIb; CD32B; not shown: His tag attached to the C terminus
T6 sequence (looked up): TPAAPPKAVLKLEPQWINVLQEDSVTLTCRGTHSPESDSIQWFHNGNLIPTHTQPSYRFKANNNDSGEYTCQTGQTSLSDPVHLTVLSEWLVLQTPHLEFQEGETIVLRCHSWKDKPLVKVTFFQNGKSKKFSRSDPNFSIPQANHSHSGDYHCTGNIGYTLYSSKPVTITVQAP
Procedure: as §2

FcgRIIIa F [3] = target: T1, FcgRIIIa F; assay: as above; remark: listed apart in the source
Procedure: as §2

FcgRIIIa V [4] = target: T2, FcgRIIIa V; assay: as above; remark: listed apart in the source
Procedure: as §2

[5] = target: T7, FcgRIIa type R extracellular domain with C-terminal His tag (human, UniProt P12318 34-217); assay: SPR (Biacore); KD of IL6R-B3/IL6R-L for this FcgR divided by KD of the sample
T7 construct: extracellular domain; also called FcgRIIaR; FcgRIIa R; not shown: His tag at the C terminus
T7 sequence (looked up): T4 sequence (looked up)
Procedure: as §2

[6] = target: T8, FcgRIIa type H extracellular domain with C-terminal His tag (human, UniProt P12318 34-217); assay: as above
T8 construct: extracellular domain; also called FcgRIIaH; FcgRIIa H; not shown: His tag at the C terminus
T8 sequence (looked up): T4 sequence (looked up) with R134H
Procedure: as §2

[7] = target: T9, FcgRIIb extracellular domain with C-terminal His tag (human, UniProt P31994 43-217); assay: as above
T9 construct: extracellular domain; Expressed in FreeStyle293 cells; also called FcγRIIb; 2b; not shown: His tag at the C terminus
T9 sequence (looked up): T6 sequence (looked up)
Procedure: as §2

[8] = target: T10, FcgRIa extracellular domain with C-terminal His tag (human, UniProt P12314 16-292); assay: SPR (Biacore), antibody captured on chip, soluble FcgR as analyte, kinetic 1:1 fit
T10 construct: extracellular domain; Expressed in FreeStyle293 cells; also called FcγRIa; not shown: His tag at the C terminus
Procedure: (§3) The variants were assessed for the binding activity to FcgR Ia, FcgR IIaR, FcgR IIaH, and FcgRIIb according to the method described in Reference Example 8.
as §2

[9] = target: T7, FcgRIIa type R extracellular domain …; assay: as above
Procedure: as §3, §2

[10] = target: T8, FcgRIIa type H extracellular domain …; assay: as above
Procedure: as §3, §2

[11] = target: T9, FcgRIIb extracellular domain with …; assay: as above
Procedure: as §3, §2

[12] = target: T9, FcgRIIb extracellular domain with …; assay: SPR (Biacore); KD of the sample for FcgRIIaR divided by its KD for FcgRIIb (selectivity for FcgRIIb)
Procedure: as §2

[13] = target: T11, FcgRIIIa type V extracellular domain with C-terminal His tag (human, UniProt P08637 17-208); assay: SPR (Biacore), antibody captured on chip, soluble FcgR as analyte; too weak for kinetics, KD from steady-state 1:1 equation
T11 construct: extracellular domain; also called FcgRIIIaV; FcgRIIIa V; not shown: His tag at the C terminus
Procedure: KD can be calculated by substituting the values of Rmax, RI, and C into this equation. The values of RI and C can be determined from the sensorgram of the measurement results and measurement conditions. Rmax was calculated according to the following method.

T1 sequence (P08637 17-208): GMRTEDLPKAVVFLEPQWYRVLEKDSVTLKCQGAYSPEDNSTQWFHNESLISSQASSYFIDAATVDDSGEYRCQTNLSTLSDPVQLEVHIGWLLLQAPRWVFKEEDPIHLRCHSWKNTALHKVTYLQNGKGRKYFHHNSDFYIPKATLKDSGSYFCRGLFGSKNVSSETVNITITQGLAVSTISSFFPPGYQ
T2 sequence (P08637 17-208 F176V limits assumed): as the sequence (P08637 17-208) above, with F160V counted along it
T11 sequence (P08637 17-208 F176V): as the sequence (P08637 17-208) above, with F160V counted along it
T10 sequence (P12314 16-292): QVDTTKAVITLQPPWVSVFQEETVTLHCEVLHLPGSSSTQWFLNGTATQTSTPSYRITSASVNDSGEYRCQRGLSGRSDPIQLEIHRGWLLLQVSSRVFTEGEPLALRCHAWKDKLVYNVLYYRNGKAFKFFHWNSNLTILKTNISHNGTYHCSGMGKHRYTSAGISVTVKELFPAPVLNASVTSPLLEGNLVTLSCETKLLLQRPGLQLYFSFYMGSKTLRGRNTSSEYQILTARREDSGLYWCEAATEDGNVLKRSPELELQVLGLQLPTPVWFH
T3 sequence (P12314 16-292): as above

B1: H240-AK072/L73-k0 (antibody, human IgG1, kappa)
heavy: QDQLVQSGAEVKKPGASVKVSCKASGFNIKDTYIQWVRQAPGQGLEWMGRIDPLRKQTKYREKFEGRVTITADTSTNTAYMELSSLRSEDTAVYYCVRSGREFDYWGQGTLVTVSSASTKGPSVFPLAPSSKSTSGGTAALGCLVKDYFPEPVTVSWNSGALTSGVHTFPAVLQSSGLYSLSSVVTVPSSSLGTQTYICNVNHKPSNTKVDKKVEPKSCDKTHTCPPCPAPEYYWGPSVFLFPPKPKDTLMISRTPEVTCVVVDVSDEEPEVKFNWYVDGVEVHNAKTKPREEQYNATYRVVSVLTVLHQDWLNGKEYKCKVSNKALPAPIEKTISKAKGQPREPQVYTLPPSRKEMTKNQVSLTCLVKGFYPSDIAVEWESNGQPENNYKTTPPVLDSDGSFFLYSKLTVDKSRWQQGNVFSCSVMHEALHNRYTQKSLSLSP
light: DIQMTQSPSSLSASVGDRVTITCRASQDIHKYIAWYQQKPGQAPRLLIQYTSTLQPGVPSRFSGSGSGTDYTFTISSLQPEDIATYYCLQYEQLRTFGGGTKVEIKRTVAAPSVFIFPPSDEQLKSGTASVVCLLNNFYPREAKVQWKVDNALQSGNSQESVTEQDSKDSTYSLSSTLTLSKADYEKHKVYACEVTHQGLSSPVTKSFNRGEC
notes: Homodimerized anti-EREG IgG1: H240-A5E (D356K/H435R) with L234Y/L235Y/G236W/H268D/D270E/S298A in both H chains
- Kd (FcgRIIIa F [1]): 300 nM
- Kd (FcgRIIIa V [2]): 29 nM

B2: H240-AK072/H240-BH076/L73-k0 (antibody, human IgG1, kappa)
heavy 1: B1 heavy
heavy 2: QDQLVQSGAEVKKPGASVKVSCKASGFNIKDTYIQWVRQAPGQGLEWMGRIDPLRKQTKYREKFEGRVTITADTSTNTAYMELSSLRSEDTAVYYCVRSGREFDYWGQGTLVTVSSASTKGPSVFPLAPSSKSTSGGTAALGCLVKDYFPEPVTVSWNSGALTSGVHTFPAVLQSSGLYSLSSVVTVPSSSLGTQTYICNVNHKPSNTKVDKKVEPKSCDKTHTCPPCPAPELLGGPSVFLFPPKPKDTLMISRTPEVTCVVVDVSHEEPEVKFNWYVDGVEVHNAKTKPREEQYNSTYRVVSVLTVLHQDWLNGKEYKCKVSNDALPMPIEETISKAKGQPREPQVYTLPPSREEMTKNQVSLTCLVKGFYPSDIAVEWESNGQPENNYKTTPPVLDSDGSFFLYSKLTVDKSRWQQGNVFSCSVMHEALHNHYTQESLSLSP
light: B1 light
notes: Heterodimerized anti-EREG IgG1 made with D356K/H435R and K439E in place of knobs-into-holes
- Kd (FcgRIIIa F [1]): 3.7 nM
- Kd (FcgRIIIa V [2]): 0.98 nM
- Kd (FcgRIa): 0.24 nM
- Kd (FcgRIIa R): 460 nM
- Kd (FcgRIIa H): 130 nM
- Kd (FcgRIIb): 2900 nM
- Kd (FcgRIIIa F [3]): 3.7 nM
- Kd (FcgRIIIa V [4]): 0.98 nM

B3: H240-BH076/L73-k0 (antibody, human IgG1, kappa)
heavy: B2 heavy 2
light: B1 light
notes: Homodimerized anti-EREG IgG1: H240-B3E (K439E) with D270E/K326D/A330M/K334E in both H chains
- Kd (FcgRIIIa F [1]): 26 nM
- Kd (FcgRIIIa V [2]): 5.3 nM

B4: IL6R-AP002/IL6R-BP256/IL6R-L (antibody, human IgG1, kappa)
heavy 1: QVQLQESGPGLVKPSETLSLTCAVSGHSISHDHAWSWVRQPPGEGLEWIGFISYSGITNYNPSLQGRVTISRDNSKNTLYLQMNSLRAEDTAVYYCARSLARTTAMDYWGEGTLVTVSSASTKGPSVFPLAPSSKSTSGGTAALGCLVKDYFPEPVTVSWNSGALTSGVHTFPAVLQSSGLYSLSSVVTVPSSSLGTQTYICNVNHKPSNTKVDKKVEPKSCDKTHTCPPCPAPDLLGDDSVFLFPPKPKDTLMISRTPEVTCVVVDVSDEDGEVKFNWYVDGVEVHNAKTKPREEQYNSTYRVVSVLTVLHQDWLNGKEYKCKVSNKALPRPIEKTISKAKGQPREPQVYTLPPSRKELTKNQVSLTCLVKGFYPSDIAVEWESNGQPENNYKTTPPVLDSDGSFFLYSKLTVDKSRWQQGNVFSCSVMHEALHNRYTQKSLSLSP
heavy 2: B4 heavy 1 with S241D, K358D, R437H, K441E
light: not shown
notes: Heterodimerized antibody with S239D in one H chain only; IL6R-AP002 is IL6R-A5 (IL6R-G1d with D356K and H435R) with E233D, G237D, P238D, H268D, P271G and A330R
- Relative KD [5]: 7.7 ratio
- Relative KD [6]: 0.2 ratio
- Relative KD [7]: 752 ratio
- Kd [8]: 3.6 nM
- Kd [9]: 140 nM
- Kd [10]: 4200 nM
- Kd [11]: 4.1 nM
- KD(IIaR)/KD(IIb) [12]: 34.3 ratio
- Kd [13]: 17000 nM
